± gives the standard deviation of the averaged measurements.
system: Saccharomyces cerevisiae; experiment: protein stability index of tFT-peptide fusion (C-terminal peptide) (PSI (0-1 scale)); higher = more stable (slower turnover); settings: genetic background: wild type; temperature: 30 C
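Also: PSI is a weighted mean of sequencing reads over stability bins, variants kept only with over 10 reads, mCherry proximal and sfGFP distal, peptide attached via GGGS linker.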

Row | Sequence | protein stability index
1 | GRWVLALCLVCG | 0.289 ± 0.0051
2 | GSLLNLSLRWLV | 0.242 ± 0.0062
3 | GTMGWYSISRRL | 0.519 ± 0.078
4 | GVCRFFCLVFCS | 0.466 ± 0.036
5 | GVCSFFVCVFFV | 0.291 ± 0.0064
6 | GVFLVWWVGFWV | 0.374 ± 0.057
7 | GVLFHIVLHFMV | 0.27 ± 0.061
8 | GVMSICRWMISV | 0.374 ± 0.014
9 | GVQFRRPLIPIY | 0.445 ± 0.082
10 | GVVCVLGFALFV | 0.413 ± 0.08
11 | GWGVFFVMRIQV | 0.34 ± 0.024
12 | GWLVGLGLVFFT | 0.514 ± 0.03
13 | GWRRRIWLCRLQ | 0.505 ± 0.041
14 | GYLFICSWCEGF | 0.427 ± 0.048
15 | HDRLRGVFWRVP | 0.439 ± 0.014
16 | HGVRLHTVWVGG | 0.4918 ± 0.0038
17 | HLKKKLKIRLIN | 0.238 ± 0.031
18 | HSRALLPYLSYH | 0.518 ± 0.029
19 | HTYSFRLLFIFL | 0.388 ± 0.05
20 | HVPPVFQASLSP | 0.747 ± 0.037
21 | ICFFQGVVVLFR | 0.407 ± 0.0077
22 | IFFVLVFFPGFF | 0.443 ± 0.06
23 | IFHWLYLLIALI | 0.309 ± 0.014
24 | IFLKFGLLRSLL | 0.488 ± 0.026
25 | IGMVSELLLFYP | 0.72 ± 0.017
26 | IGSFYVLSFICQ | 0.475 ± 0.02

Row | Sequence | protein stability index
27 | IHTFSVVVVVAA | 0.163 ± 0.022
28 | IIFACFYGVFLM | 0.187 ± 0.0052
29 | ILDRRPRTFALV | 0.186 ± 0.0083
30 | IMGGLRHRIEVY | 0.352 ± 0.016
31 | IRSLRPFLLPLF | 0.4088 ± 0.004
32 | IRVFSFLLFGCF | 0.44 ± 0.056
33 | ISFQFFVCLCAR | 0.234 ± 0.019
34 | ISHLQCFFVVML | 0.489 ± 0.042
35 | ISLSSLYVVMYV | 0.291 ± 0.024
36 | IVFFVLFRFWRF | 0.32 ± 0.047
37 | IVRLGRWLGLSC | 0.352 ± 0.052
38 | IYEAFLVFCLCG | 0.365 ± 0.021
39 | KKKEIIKIIKIN | 0.127 ± 0.013
40 | KKKKKKKIKIMS | 0.266 ± 0.048
41 | KKKNIYKVMKLE | 0.403 ± 0.055
42 | KLCVGLVLSFVC | 0.257 ± 0.053
43 | KWGRFQQVMVIN | 0.266 ± 0.0042
44 | KYQVIILQTRKI | 0.398 ± 0.0041
45 | LACGIDGYYWRH | 0.792 ± 0.027
46 | LAFMYFVCPRLA | 0.369 ± 0.0057
47 | LAVVLVWVPGRW | 0.418 ± 0.026
48 | LCFFLAFSFVFF | 0.296 ± 0.0099
49 | LCFGMVELMWIY | 0.458 ± 0.0053
50 | LCFRLVSYLCIN | 0.39 ± 0.0077
51 | LCGIFTFRLSLL | 0.388 ± 0.051
52 | LCIYNFGWWFCV | 0.183 ± 0.056

Row | Sequence | protein stability index
53 | LCLLCWIPCSFR | 0.524 ± 0.048
54 | LCLLFLSFFFVC | 0.307 ± 0.0056
55 | LCVVVICCLMAR | 0.279 ± 0.05
56 | LDLSSVFILYFN | 0.374 ± 0.022
57 | LEGRFLACRGIC | 0.264 ± 0.04
58 | LEVHGSCIFICV | 0.444 ± 0.017
59 | LFAIFLVVLLFR | 0.219 ± 0.054
60 | LFFPLPGILSFF | 0.523 ± 0.046
61 | LFFWVLTVMFVW | 0.302 ± 0.046
62 | LFGRVLSGILSV | 0.523 ± 0.06
63 | LFLLSHYALCFY | 0.3967 ± 0.0035
64 | LFLSFLLFVLAF | 0.388 ± 0.042
65 | LFLSIFFFHLLF | 0.37 ± 0.033
66 | LFPVFFPLFAPA | 0.322 ± 0.03
67 | LFSCTQLLPITA | 0.245 ± 0.032
68 | LFSIFMSYRVYI | 0.411 ± 0.02
69 | LFSTRRWISVCA | 0.0789 ± 0.016
70 | LFSVLVFIYFVM | 0.127 ± 0.022
71 | LFTSGNSLVLVH | 0.365 ± 0.0042
72 | LFYVSFLFMLLF | 0.378 ± 0.01
73 | LGALFGRFWWYF | 0.42 ± 0.027
74 | LGCLVWGGVWGV | 0.479 ± 0.019
75 | LGFSHTRAIFFV | 0.307 ± 0.011
76 | LGGCVSYINLLA | 0.308 ± 0.026
77 | LGRFHLACLLFL | 0.43 ± 0.048
78 | LGVLVVAFCGGC | 0.409 ± 0.031

system: Saccharomyces cerevisiae; experiment: as above; settings: genetic background: cdc34-1; temperature: 37 C
Procedure: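 MPS profiling in S. cerevisiae of the tFT-X12 degron library: putative degron peptides plus stable controls, 12 aa, fused to the C-terminus of a sfGFP-mCherry timer. Cells are FACS-sorted into 8 mCherry/sfGFP bins and deep-sequenced. PSI runs from 0 (unstable) to 1 (stable). Backgrounds are wild type, das1Δ and doa10Δ at 30 °C, and wild type, das1Δ, cdc34-1 and cdc53-1 at 37 °C; 2-3 technical replicates each.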

Row | Sequence | protein stability index
79 | GRWVLALCLVCG | 0.165 ± 0.0068
80 | GSLLNLSLRWLV | 0.626 ± 0.012
81 | GTMGWYSISRRL | 0.692 ± 0.052
82 | GVCRFFCLVFCS | 0.544 ± 0.02
83 | GVCSFFVCVFFV | 0.195 ± 0.0042
84 | GVFLVWWVGFWV | 0.257 ± 0.025
85 | GVLFHIVLHFMV | 0.24 ± 0.045
86 | GVMSICRWMISV | 0.415 ± 0.0094
87 | GVQFRRPLIPIY | 0.514 ± 0.0065
88 | GVVCVLGFALFV | 0.403 ± 0.026
89 | GWGVFFVMRIQV | 0.1751 ± 0.00088
90 | GWLVGLGLVFFT | 0.586 ± 0.018
91 | GWRRRIWLCRLQ | 0.575 ± 0.018
92 | GYLFICSWCEGF | 0.46 ± 0.059
93 | HDRLRGVFWRVP | 0.669 ± 0.066
94 | HGVRLHTVWVGG | 0.55 ± 0.029
95 | HLKKKLKIRLIN | 0.488 ± 0.16
96 | HSRALLPYLSYH | 0.684 ± 0.04
97 | HTYSFRLLFIFL | 0.378 ± 0.031
98 | HVPPVFQASLSP | 0.675 ± 0.072
99 | ICFFQGVVVLFR | 0.353 ± 0.033
100 | IFFVLVFFPGFF | 0.483 ± 0.036
101 | IFHWLYLLIALI | 0.459 ± 0.025
102 | IFLKFGLLRSLL | 0.9386 ± 0.006
103 | IGMVSELLLFYP | 0.721 ± 0.047
104 | IGSFYVLSFICQ | 0.593 ± 0.043

Row | Sequence | protein stability index
105 | IHTFSVVVVVAA | 0.0536 ± 0.037
106 | IIFACFYGVFLM | 0.0485 ± 0.025
107 | ILDRRPRTFALV | 0.572 ± 0.017
108 | IMGGLRHRIEVY | 0.366 ± 0.038
109 | IRSLRPFLLPLF | 0.645 ± 0.016
110 | IRVFSFLLFGCF | 0.465 ± 0.027
111 | ISFQFFVCLCAR | 0.13 ± 0.0054
112 | ISHLQCFFVVML | 0.439 ± 0.029
113 | ISLSSLYVVMYV | 0.413 ± 0.0072
114 | IVFFVLFRFWRF | 0.354 ± 0.019
115 | IVRLGRWLGLSC | 0.657 ± 0.032
116 | IYEAFLVFCLCG | 0.426 ± 0.016
117 | KKKEIIKIIKIN | 0.311 ± 0.033
118 | KKKKKKKIKIMS | 0.583 ± 0.0096
119 | KKKNIYKVMKLE | 0.65 ± 0.011
120 | KLCVGLVLSFVC | 0.47 ± 0.021
121 | KWGRFQQVMVIN | 0.558 ± 0.037
122 | KYQVIILQTRKI | 0.578 ± 0.014
123 | LACGIDGYYWRH | 0.703 ± 0.048
124 | LAFMYFVCPRLA | 0.598 ± 0.045
125 | LAVVLVWVPGRW | 0.443 ± 0.037
126 | LCFFLAFSFVFF | 0.253 ± 0.017
127 | LCFGMVELMWIY | 0.418 ± 0.057
128 | LCFRLVSYLCIN | 0.497 ± 0.054
129 | LCGIFTFRLSLL | 0.693 ± 0.06
130 | LCIYNFGWWFCV | 0.494 ± 0.011

Row | Sequence | protein stability index
131 | LCLLCWIPCSFR | 0.629 ± 0.017
132 | LCLLFLSFFFVC | 0.464 ± 0.0083
133 | LCVVVICCLMAR | 0.097 ± 0.025
134 | LDLSSVFILYFN | 0.599 ± 0.041
135 | LEGRFLACRGIC | 0.619 ± 0.028
136 | LEVHGSCIFICV | 0.5422 ± 0.0046
137 | LFAIFLVVLLFR | 0.106 ± 0.016
138 | LFFPLPGILSFF | 0.76 ± 0.027
139 | LFFWVLTVMFVW | 0.162 ± 0.025
140 | LFGRVLSGILSV | 0.687 ± 0.04
141 | LFLLSHYALCFY | 0.523 ± 0.0055
142 | LFLSFLLFVLAF | 0.434 ± 0.023
143 | LFLSIFFFHLLF | 0.314 ± 0.023
144 | LFPVFFPLFAPA | 0.285 ± 0.029
145 | LFSCTQLLPITA | 0.0614 ± 0.017
146 | LFSIFMSYRVYI | 0.35 ± 0.037
147 | LFSTRRWISVCA | 0.0208 ± 0.0016
148 | LFSVLVFIYFVM | 0.102 ± 0.032
149 | LFTSGNSLVLVH | 0.21126 ± 0.00018
150 | LFYVSFLFMLLF | 0.359 ± 0.084
151 | LGALFGRFWWYF | 0.664 ± 0.024
152 | LGCLVWGGVWGV | 0.706 ± 0.04
153 | LGFSHTRAIFFV | 0.651 ± 0.039
154 | LGGCVSYINLLA | 0.592 ± 0.032
155 | LGRFHLACLLFL | 0.588 ± 0.013
156 | LGVLVVAFCGGC | 0.488 ± 0.041
